T1: Grhl1 DBD (Homo sapiens, UniProt Q9NZI5 248-485)
T1 sequence: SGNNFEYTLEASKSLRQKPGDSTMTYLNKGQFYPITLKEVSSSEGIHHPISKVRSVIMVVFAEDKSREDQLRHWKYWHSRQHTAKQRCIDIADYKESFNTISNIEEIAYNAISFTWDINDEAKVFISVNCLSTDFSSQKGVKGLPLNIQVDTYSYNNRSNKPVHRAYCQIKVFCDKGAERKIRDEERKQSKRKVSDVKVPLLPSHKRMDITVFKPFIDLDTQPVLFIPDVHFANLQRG

B1: Mut_12mer (dsDNA)
DNA 1: AAAATCGATTTT
DNA 2: AAAATCGATTTT
B2: ΔN_Grhl1 (N-terminal truncation construct of human Grhl1, aa 248–618; DBD plus dimerization domain) (domain or fragment, UniProt Q9NZI5 248-618, looked up)
chain: SGNNFEYTLEASKSLRQKPGDSTMTYLNKGQFYPITLKEVSSSEGIHHPISKVRSVIMVVFAEDKSREDQLRHWKYWHSRQHTAKQRCIDIADYKESFNTISNIEEIAYNAISFTWDINDEAKVFISVNCLSTDFSSQKGVKGLPLNIQVDTYSYNNRSNKPVHRAYCQIKVFCDKGAERKIRDEERKQSKRKVSDVKVPLLPSHKRMDITVFKPFIDLDTQPVLFIPDVHFANLQRGTHVLPIASEELEGEGSVLKRGPYGTEDDFAVPPSTKLARIEEPKRVLLYVRKESEEVFDALMLKTPSLKGLMEAISDKYDVPHDKIGKIFKKCKKGILVNMDDNIVKHYSNEDTFQLQIEEAGGSYKLTLTEI

Assays:
Grhl1 DBD = molecular target: T1, Grhl1 DBD; experiment: ITC
SEC-RALS = molecular target: the molecule itself; experiment: SEC-RALS

Binder | binding result (Grhl1 DBD) | stoichiometry N (SEC-RALS)
B1 | no binding | 
B2 |  | 2

From PMC5829564 (Nucleic Acids Research, 2018)
